These are literature values, as cited in PMC11899465.

Broadly, the Kd is the concentration at which binding is half-saturated.

Read-outs that look alike come from different tables or passages of the source.

In series [1] the target is CD137 (Homo sapiens) (UniProt Q07011).
The target is the same in series [2]. This is another data set of the same source.

CD137 (Homo sapiens), sequence (Q07011 24-255): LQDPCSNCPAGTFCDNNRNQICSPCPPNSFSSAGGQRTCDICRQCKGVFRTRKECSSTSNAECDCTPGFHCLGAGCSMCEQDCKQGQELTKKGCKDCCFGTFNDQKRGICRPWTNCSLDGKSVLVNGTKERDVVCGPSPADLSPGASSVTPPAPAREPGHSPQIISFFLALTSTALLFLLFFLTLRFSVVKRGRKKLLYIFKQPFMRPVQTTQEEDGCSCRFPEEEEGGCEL
CD137L (monomer), sequence (P41273 whole entry): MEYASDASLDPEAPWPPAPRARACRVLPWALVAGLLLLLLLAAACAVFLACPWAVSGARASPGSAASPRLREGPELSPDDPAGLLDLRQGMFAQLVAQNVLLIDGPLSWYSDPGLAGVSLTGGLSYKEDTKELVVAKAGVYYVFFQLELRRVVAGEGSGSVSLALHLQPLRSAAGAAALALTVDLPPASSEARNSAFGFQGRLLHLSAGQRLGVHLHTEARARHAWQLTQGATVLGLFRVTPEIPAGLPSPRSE
CD137L (homotrimer), sequence (P41273 whole entry): as above

For the substance “CD137L (homotrimer) (from UniProt P41273)”, the dissociation constant (Kd) in series [1] is 1.2 nM. In the case of CD137L (monomer) (from UniProt P41273), the equilibrium dissociation constant (Kd) in series [2] is 55.2 nM.
